# Data as given in US20060292657A1, “Phex substrates and methods using same” (priority 2003, published 2006).
# B1: human recombinant secPHEX (Homo sapiens) (protein)
# chain: SLQAKQEYCLKPECIEAAAAILSKVNLSVDPCDNFFRFACDGWISNNPIPEDMPSYGVYPWLRHNVDLKLKELLEKSISRRRDTEAIQKAKILYSSCMNEKAIEKADAKPLLHILRHSPFRWPVLESNIGPEGVWSERKFSLLQTLATFRGQYSNSVFIRLYVSPDDKASNEHILKLDQATLSLAVREDYLDNSTEAKSYRDALYKFMVDTAVLLGANSSRAEHDMKSVLRLEIKIAEIMIPHENRTSEAMYNKMNISELSAMIPQFDWLGYIKKVIDTRLYPHLKDISPSENVVVRVPQYFKDLFRILGSERKKTIANYLVWRMVYSRIPNLSRRFQYRWLEFSRVIQGTTTLLPQWDKCVNFIESALPYVVGKMFVDVYFQEDKKEMMEELVEGVRWAFIDMLEKENEWMDAGTKRKAKEKARAVLAKVGYPEFIMNDTHVNEDLKAIKFSEADYFGNVLQTRKYLAQSDFFWLRKAVPKTEWFTNPTTVNAFYSASTNQIRFPAGELQKPFFWGTEYPRSLSYGAIGVIVGHEFTHGFDNNGRKYDKNGNLDPWWSTESEEKFKEKTKCMINQYSNYYWKKAGLNVKGKRTLGENIADNGGLREAFRAYRKWINDRRQGLEEPLLPGITFTNNQLFFLSYAHVRCNSYRPEAAREQVQIGAHSPPQFRVNGAISNFEEFQKAFNCPPNSTMNRGMDSCRLW
# notes: pure soluble form of PHEX (secPHEX); made in house
# What was measured:
# Assay in all cases: Kinetic parameters for hydrolysis of internally quenched fluorogenic peptides by secPHEX
# Type in all cases: biochemical, human
# Conditions in all cases: other: 37° C., 10 mM Bis-Tris buffer pH 5.5, 150 mM NaCl
# [1] = substrate: C[C@H](NC(=O)[C@H](C)NC(=O)[C@H](CC(=O)O)NC(=O)[C@H](CO)NC(=O)[C@H](CO)NC(=O)CNC(=O)c1ccccc1N)C(=O)N[C@@H](CCC(=O)O)C(=O)N[C@@H](CCC(N)=O)C(=O)NCCNc1ccc([N+](=O)[O-])cc1[N+](=O)[O-]
# Protocol: (§1) The human recombinant secPHEX was obtained following the procedure previously described (17, WO 00/50580). Purified secPHEX concentration was determined using the Bradford method (DC protein assay kit; Bio-Rad, Mississauga, ON, Canada). Membrane-bound recombinant human PHEX was expressed in LLC-PK1 cells (17, (WO 00/50580)) and membranes were prepared essentially as described by Guo et al. (34). Briefly, transfected cells resuspended in lysis buffer (150 mM NaCl, 20 mM Tris.HCl, pH 7.6) were disrupted by sonication. Cell debris were removed by centrifugation at 300 g for 15 min at 4 °C. Membranes were collected by centrifugation at 30,000 g for 50 min and solubilized for 2h with 1% n-dodecyl-β-D-maltoside in lysis buffer. Insoluble material was pelleted by centrifugation at 10,000 g for 15 min and protein concentrations of the supernatant determined using the Bradford method described above. PHEX amounts were evaluated by immunoblotting as described previously (17). NEP expression and purification were performed as described previously (36).
# (§2) The hydrolysis of the IQFPs, at 37° C., in 10 mM Bit-Tris buffer pH 5.5 (0.35 to 1.0 ml final volume) containing 150 mM NaCl, was continuously followed measuring the fluorescence at γem=420 nm and γex=320 nm in a Hitachi F-2000™ spectrofluorometer. The cuvefte containing the buffer and the substrate was placed in a thermostatically controlled cell compartment for 5 min before the addition of the enzyme and the increase in fluorescence with time was continuously recorded for 5-10 min. The enzyme concentration for initial rate determination was chosen at a level intended to hydrolyze less than 5% of the substrate present. The slope was converted into micromoles of substrate hydrolyzed per min based on a calibration curve obtained from complete hydrolysis of each peptide. The inner-filter effect was corrected using an empirical equation as previously described (43). The kinetic parameters Km and kcat were calculated by the non-linear regression data analysis Grafit program (42). The kcat/Km values were calculated as the ratio of these two determined parameters. The apparent second order rate constant kcat/Km (*kIt/Km) was determined under pseudo first-order conditions, where [S]<<Km. These determinations were performed in two different substrate concentrations and the errors were less than 5% for any obtained value.
# (§3) To determine the position of cleavage in peptides of the IQFPs combinatorial libraries, the products resulting from hydrolysis by secPHEX were submitted to N-terminal amino acid sequencing in a PPSQ-23protein sequencer (Shimadzu Tokyo, Japan). The scissile bonds in the IQFPs secPHEX substrates derived from PTHrP107-139, FGF-23and MEPE were determined by amino acid sequencing and by MALDI-TOF™ mass spectrometry (TofSpec-E™, Micromass, Manchester, U.K.) after isolation of the fragments resulting from the hydrolysis by secPHEX by analytical HPLC.
# (§4) The assays were performed at 37° C., in 10 mM Bis-Tris buffer pH 5.5, containing 150 mM NaCl. Measurements were made as described under the heading “Experimental Procedures” above. Cleavage sites are indicated as arrows (↓). The standard deviations of the kinetic constants were less than 5%.
# (§5) The assays were performed at 37° C., in 10 mM Bis-Tris buffer pH 5.5, containing 150 mM NaCl. Measurements were made as described under the heading “Experimental Procedures” above. Cleavage sites are indicated by arrows (↓). The standard deviations of the kinetic constants were less than 5%.
# (§6) The assays were. performed at 37° C., in 10 mM Bis-Tris buffer pH 5.5, containing 150 mM NaCl. Measurements were made as described under the heading “Experimental Procedures” above. Cleavage sites are indicated by arrows (↓). The standard deviations of the kinetic constants were less than 5%.
# (§7) The assays were performed at 37° C., in 10 mM Bis-Tris buffer pH 5.5, containing 150 mM NaCl. Measurements were made as described under “Experimental Procedures”. […]
# [2] = substrate: C[C@H](NC(=O)[C@H](CO)NC(=O)[C@H](CCC(N)=O)NC(=O)[C@@H](NC(=O)[C@H](Cc1c[nH]cn1)NC(=O)[C@H](CCCNC(=N)N)NC(=O)[C@H](CCCNC(=N)N)NC(=O)c1ccccc1N)[C@@H](C)O)C(=O)N[C@@H](CCC(=O)O)C(=O)N[C@@H](CC(=O)O)C(=O)N[C@@H](CC(=O)O)C(=O)N[C@@H](CO)C(=O)N[C@@H](CCC(=O)O)C(=O)N[C@@H](CCCNC(=N)N)C(=O)N[C@@H](CCC(N)=O)C(=O)NCCNc1ccc([N+](=O)[O-])cc1[N+](=O)[O-]
# Protocol: as §1, §2, §3, §4, §5, §6, §7
# [3] = substrate: NC(=O)CC[C@H](NC(=O)[C@H](Cc1ccc(O)cc1)NC(=O)[C@H](CC(=O)O)NC(=O)[C@H](CO)NC(=O)[C@H](Cc1ccccc1)NC(=O)CNC(=O)c1ccccc1N)C(=O)NCCNc1ccc([N+](=O)[O-])cc1[N+](=O)[O-]
# Protocol: as §1, §2, §3, §4, §5, §6, §7
# [4] = substrate: CC(C)C[C@H](NC(=O)c1ccccc1N)C(=O)N[C@@H](CCC(=O)O)C(=O)N[C@@H](CC(C)C)C(=O)N[C@@H](CC(=O)O)C(=O)N[C@@H](CO)C(=O)N[C@@H](CCCNC(=N)N)C(=O)N[C@@H](CCC(N)=O)C(=O)NCCNc1ccc([N+](=O)[O-])cc1[N+](=O)[O-]
# Protocol: as §1, §2, §3, §4, §5, §6, §7
# [5] = substrate: NC(=O)CC[C@H](NC(=O)[C@H](CO)NC(=O)CNC(=O)[C@H](CO)NC(=O)[C@H](CC(=O)O)NC(=O)[C@H](CO)NC(=O)[C@H](CO)NC(=O)c1ccccc1N)C(=O)NCCNc1ccc([N+](=O)[O-])cc1[N+](=O)[O-]
# Protocol: as §1, §2, §3, §4, §5, §6, §7
protein,measurement,setting,value
B1,Km,[1],2.4 µM
same,kcat,[1],0.3 s⁻¹
same,kcat/Km,[1],125.0 mM⁻¹ s⁻¹
same,Km,[2],1.7 µM
same,kcat,[2],0.15 s⁻¹
same,kcat/Km,[2],88.2 mM⁻¹ s⁻¹
same,Km,[3],13.3 µM
same,kcat,[3],0.6 s⁻¹
same,kcat/Km,[3],45.1 mM⁻¹ s⁻¹
same,Km,[4],0.9 µM
same,kcat,[4],0.05 s⁻¹
same,kcat/Km,[4],55.5 mM⁻¹ s⁻¹
same,Km,[5],31.6 µM
same,kcat,[5],0.2 s⁻¹
same,kcat/Km,[5],7.1 mM⁻¹ s⁻¹
